Source: the supplement of paper PMC10567573

B1: KRT33B (parent)
chain: YQSYFKTIEELQQKILCSKSENAR

Variants of: B1
Experiment: protein stability index of a GFP-peptide fusion (GPS, HEK-293T) (PSI 1-6); higher = more stable
Settings: c terminus: a fixed tail appended
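Also: lentivirally expressed fusions sorted by FACS into six bins by GFP to DsRed ratio, PSI derived from sequencing read proportions per bin multiplied by bin number.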

Protein stability index of substitutions, site by site:
F5: Q 2.78; P 2.17; K 2.38; G 2.92; I 2.12; V 2.26; L 2.07; M 3.48; W 2.44; A 2.37; N 2.91; C 2.16; T 2.59; S 2.81; R 2.53; E 3.79; Y 2.32; H 1.84; D 3.8
I15: W 1.71; C 3.74; H 2.52; T 1.81; S 1.93; G 2.25; F 2; V 1.7; L 1.67; K 1.64; P 2.3; Y 1.73; M 2.07; E 1.81; Q 2.09; D 2.05; N 1.85; R 1.93; A 2.14
S3: Y 2.54; P 2.41; N 1.79; Q 2.38; T 1.9; V 1.6; W 1.79; R 1.25
Q13: C 1.3; G 2.09; D 1.55; N 2.19; T 2.23; F 2.04; Y 1.65; P 1.83; K 1.85; W 2.6; R 1.68; L 2.2; V 1.78; M 1.4; I 1.35; S 1.86; E 1.81; A 1.79; H 2.09
L16: Q 1.88; S 2; K 2.39; F 1.93; T 1.55; H 1.96; E 1.73; P 2.12; N 1.84; V 2.89; I 2.14; A 2.13; G 1.92; M 1.85; Y 1.41; C 2.52; R 2.49; D 1.87; W 2.1
K6: N 1.88; G 1.5; H 1.62; Q 1.64; C 3.34; D 2.08; Y 2.55; M 1.8; I 2.52; L 1.77; R 1.11; F 2.25; E 1.93; P 2.74; S 2.59; W 2.07; T 1.79; A 1.43; V 2.41
L11: K 1.42; Y 1.8; P 2.06; Q 1.71; E 2.01; I 1.81; W 2.2; V 2.01; F 1.75; S 1.84; C 1.53; R 1.62; N 2.09; D 1.79; A 2.41; H 2.1; T 1.85; G 2.02; M 1.6
Q12: G 1.73; P 1.8; A 2.78; R 2.11; W 1.91; C 1.58; E 2.6; I 1.94; D 2.07; V 1.98; H 1.78; K 2.06; N 1.89; T 1.96; L 1.79; Y 1.97; F 2.98; S 1.96; M 1.53
E21: A 1.86; C 1.79; D 1.77
S18: T 2; Y 2.21; W 1.97; N 1.92; P 1.79; L 1.79; F 1.68; K 1.86; I 2.42; E 2.12; A 2.21; V 1.73; Q 2.26; H 1.84; C 2.65; G 2.21; R 2.18; M 2.18; D 1.9
S20: I 1.92; N 2.13; R 1.89; Y 1.95; Q 1.81; K 2.05; W 1.56; F 1.97; H 1.82; G 1.38; V 2.04; M 1.63; D 2.32; L 1.73; E 1.65; A 2.02; C 1.95; P 1.99; T 1.87
C17: K 2.19; N 1.95; H 2.31; E 2.49; L 2.87; V 1.72; Y 1.61; Q 1.89; F 1.39; T 2.19; G 1.87; P 1.77; D 1.65; A 2.16; S 1.7; I 2.07; R 2.14; M 2.54; W 1.53
T7: H 2.31; D 2.42; K 1.88; V 2.25; S 1.73; C 2.1; M 2.12; W 1.8; F 2.11; E 2.31; Q 1.84; Y 2.08; I 1.97; R 1.88; P 1.85; L 2; A 2.21; G 1.8; N 2.23
E10: W 1.71; S 1.65; D 2.36; L 1.63; F 2.13; R 1.89; I 1.66; H 1.65; M 1.67; T 1.87; A 2.02; Y 2.52; V 2.28; P 2.39; Q 2.69; G 2.6; N 2.1; C 1.72; K 2.44
I8: P 2.78; T 1.63; Q 2.06; R 1.9; L 2.41; E 3; F 2.01; H 2.42; K 2.42; W 1.94; M 1.79; S 1.51; N 2.19; Y 1.93; D 2.07; C 1.84; A 2.44; V 2.19; G 1.78
E9: Q 1.98; Y 2.33; M 1.78; G 1.86; K 2.9; S 2.99; N 2.69; F 1.53; I 1.9; T 2.12; V 1.98; D 1.9; P 1.66; C 1.79; L 2.17; H 2.25; A 1.98; R 2.99; W 1.71
K19: I 1.71; C 1.84; M 1.69; N 1.86; R 2.06; A 1.72; L 1.54; S 1.78; E 2.56; Q 2.08; H 1.76; G 2.08; Y 1.84; V 1.7; T 2.3; P 2.14; W 1.57; F 1.7; D 1.72
Y4: E 1.88; T 1.74; G 2.08; A 2.1; N 1.85; S 1.54; P 1.73; F 1.85; R 2.25; L 1.92; H 1.81; M 2.11; K 1.5; V 2.19; I 1.96; C 2.01; Q 1.58; W 2.97; D 2.34
K14: I 1.66; R 2.57; V 1.65; A 1.53; E 1.82; Q 2.78; F 2.02; L 2.14; W 3.51; T 1.56; P 1.45; G 1.25; N 1.7; D 1.68; Y 1.61; M 2.28; H 2.28; S 1.97; C 2.14
